The target of test [1] is T1, cyclo (CGHHQKG) (SEQ ID NO: 2)-BSA (cyclized peptide, cyclo(CGHHQKG); conjugated to BSA).
T1 construct: also called cyclic peptide-BSA; cyclo-BSA peptide
The test can be described thus: SPR multi-cycle kinetics, purified IgG4 vs cyclic peptide-BSA.

Test [2] addresses T2, commercial A-beta oligomer (purchased from SynAging) (human).
T2 construct: also called commercial oligomer
The test can be described thus: SPR (MASS-1), antibody immobilized, commercial oligomer injected. The protocol:
(§1) All surface plasmon resonance (SPR) measurements were performed using a Molecular Affinity Screening System (MASS-1) (Sierra Sensors GmbH, Hamburg, Germany), an analytical biosensor that employs high intensity laser light and high speed optical scanning to monitor binding interactions in real time. In SPR direct binding assays, antibodies are covalently immobilized on individual flow cells of a High Amine Capacity (HAC) sensorchip (Sierra Sensors GmbH, Hamburg, Germany) and ligands flowed over the surface (BSA-conjugated peptides, A-beta42 Monomer and A-beta42 Oligomer). Each sample was diluted and injected in duplicate over the immobilized peptide and BSA reference surfaces, followed by injection of running buffer only for the dissociation phase. After every analytical cycle, the sensor chip surfaces were regenerated. Sensorgrams were double-referenced by subtracting out binding from the BSA reference surfaces and blank running buffer injections, and binding response report points collected in the dissociation phase.

Test [3] has as its target T3, A-beta42 Oligomer (oligomer prep, made in F12 medium) (human).
T3 construct: also called synthetic AβO
The test can be described thus: SPR (MASS-1), antibody immobilized, A-beta42 oligomer injected. As to the method: as §1

Test [4] addresses T4, linear (CGHHQKG) (SEQ ID NO: 2) peptide-BSA (linear (non-cyclized) peptide; conjugated to BSA).
T4 construct: also called linear peptide-BSA; linear-BSA peptide
Put plainly: SPR multi-cycle kinetics, purified IgG4 vs linear peptide-BSA.

The target in test [5] is T4, linear (CGHHQKG) (SEQ ID NO: 2) …. Put plainly: SPR single cycle kinetics; IgG4 in cell supernatant captured on Protein A chip; peptide-BSA injected at four rising concentrations, 0.025 to 0.675 nM [Cont.]. As to the method: (§2) A four-point, three-fold dilution range from 0.025 nM to 0.675 nM peptide-BSA without regeneration between each concentration was used.
Test [6] addresses T1, cyclo (CGHHQKG) (SEQ ID NO: 2)-BSA. Described as above. As to the method: as §2

Where a chain is given by its changes, count along the chain named. In names and notes the source's numbering stands.

T1 sequence (P02769 25-607 limits assumed): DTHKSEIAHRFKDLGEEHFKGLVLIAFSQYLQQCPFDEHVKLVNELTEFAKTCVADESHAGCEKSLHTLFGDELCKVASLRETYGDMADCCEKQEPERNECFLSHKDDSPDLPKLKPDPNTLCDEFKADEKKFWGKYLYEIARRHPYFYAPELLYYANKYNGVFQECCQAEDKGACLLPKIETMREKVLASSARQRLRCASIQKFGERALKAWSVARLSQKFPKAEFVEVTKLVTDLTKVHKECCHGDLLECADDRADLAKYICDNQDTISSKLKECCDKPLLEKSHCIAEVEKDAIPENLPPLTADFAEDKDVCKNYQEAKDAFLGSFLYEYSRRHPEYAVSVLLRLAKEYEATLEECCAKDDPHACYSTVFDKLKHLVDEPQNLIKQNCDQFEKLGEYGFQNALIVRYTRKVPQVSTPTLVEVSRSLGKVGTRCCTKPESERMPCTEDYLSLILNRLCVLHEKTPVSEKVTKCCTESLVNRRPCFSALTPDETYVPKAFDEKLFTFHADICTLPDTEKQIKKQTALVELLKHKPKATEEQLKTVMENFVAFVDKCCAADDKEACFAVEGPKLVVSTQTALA
T4 sequence (P02769 25-607 limits assumed): as above
T3 sequence (peptide, as listed by the source): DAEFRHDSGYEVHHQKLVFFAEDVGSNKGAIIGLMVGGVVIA
T2 sequence (peptide, as listed by the source): as above

B1: parental antibody, PMN310 humanized antibody variant VH2/Vk5 (human IgG4 S241P / kappa) (antibody, V domains shown)
VH: QVQLVQSGAEVKKPGASVKMSCKASGYSFTSYWINWVKQRPGQGLEWIGDVHPGRGVSTYNAKFKSRATLTLDTSISTAYMELSSLRSEDTAVYYCSRSHGNTYWFFDVWGQGTTVTVSS
VL: DVLMTQSPLSLPVTLGQPASISCRSSQSIVHSNGNTYLEWYQQRPGQSPRLLIYKVSNRFSGVPDRFSGSGSGTDFTLKISRVEAEDVGVYYCFQGSHVPFTFGQGTKLEIKR
notes: also called parental huPMN310; huPMN310
In test [1], B1 had a Kd of 0.0274 nM, a koff of 0.000155 s⁻¹ and a kon of 5.65e+06 M⁻¹ s⁻¹. Further, in test [2], the “Binding to commercial oligomer (BRU)” value is 3 BRU. Also, the “Binding to oligomer prep (BRU)” value in test [3] amounted to 85.6 BRU. In test [4], the affinity, expressed as Kd, was 0.103 nM; the koff worked out at 0.000155 s⁻¹; the kon stood at 1.5e+06 M⁻¹ s⁻¹.

B2: Clone 4 (affinity matured VH with parental Vk, human IgG4 S241P / kappa) (antibody, V domains shown)
VH: B1 VH with S97A, S99V, H100S, G101P, N102T, T103G
VL: B1 VL
Regarding B2, in test [1], the Kd was found to be 0.0235 nM, the koff came out at 6.9e-05 s⁻¹ and the kon turned out to be 2.94e+06 M⁻¹ s⁻¹. Also, the “Binding to commercial oligomer (BRU)” value in test [2] turned out to be 22.6 BRU. Also, the “Binding to oligomer prep (BRU)” value in test [3] was 57.3 BRU.

B3: Clone 13 (antibody, human IgG4 S228P, kappa, V domains shown)
VH: B1 VH with S97A, H100V, N102D, F107Y
VL: B1 VL
For B3, the binding result in test [5] and in test [6] was “no binding” each time.

B4: Clone 5 (affinity matured VH with parental Vk, human IgG4 S241P / kappa) (antibody, V domains shown)
VH: B1 VH with S97A, S99G, H100A, G101L, N102S, T103P
VL: B1 VL
In the case of B4, in test [1], the Kd is 0.0647 nM, the koff was 0.000132 s⁻¹ and the kon amounted to 2.04e+06 M⁻¹ s⁻¹. For the same molecule, the “Binding to commercial oligomer (BRU)” value in test [2] turned out to be 32.3 BRU. Moreover, the “Binding to oligomer prep (BRU)” value in test [3] is 223 BRU. In test [4], this molecule showed a Kd of 0.0924 nM, a koff of 0.000138 s⁻¹ and a kon of 1.49e+06 M⁻¹ s⁻¹.

B5: Clone 14 (affinity matured VH with parental Vk, human IgG4 S241P / kappa) (antibody, V domains shown)
VH: B1 VH with S97A, R98K, H100D, G101A, N102S, T103G
VL: B1 VL
As for B5, in test [1], the Kd was found to be 0.0289 nM, the koff is 0.000152 s⁻¹ and the kon was determined as 5.26e+06 M⁻¹ s⁻¹. Also, the “Binding to commercial oligomer (BRU)” value in test [2] was 22.3 BRU. In addition, the “Binding to oligomer prep (BRU)” value in test [3] was 30.8 BRU.

These data come from US20230141177A1 (UNIVERSITY OF BRITISH COLUMBIA, published 2023).
